Measured values taken from article PMC2700515 (The Journal of Cell Biology, 2009).

Tests used:
[1] = target: T1, hCen3, purified (GST removed) (human, UniProt O15182 1-167); assay: pull-down
T1 sequence: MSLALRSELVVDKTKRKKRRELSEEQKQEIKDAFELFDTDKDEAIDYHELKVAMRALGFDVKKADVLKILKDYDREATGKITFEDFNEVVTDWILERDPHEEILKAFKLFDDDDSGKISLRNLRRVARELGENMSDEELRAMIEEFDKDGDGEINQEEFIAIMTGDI

[2] = target: T2, hCen2, purified (GST removed) (human, UniProt P41208 1-172); assay: pull-down
T2 sequence: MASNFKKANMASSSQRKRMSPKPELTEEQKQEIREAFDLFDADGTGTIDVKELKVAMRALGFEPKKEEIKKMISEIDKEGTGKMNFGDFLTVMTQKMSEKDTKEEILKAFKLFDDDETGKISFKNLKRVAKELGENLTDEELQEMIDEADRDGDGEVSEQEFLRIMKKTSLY

binding result [1]: binds | binding result [2]: binds
B1: GST-hPOC5 CBR2+3 (aa 222-304) (domain or fragment)
chain: EISIGRKDEVISSLSHAIGKQKEKIELMRTFFHWRIGHVRARQDVYEGKLADQYYQRTLLKKVWKVWRSVVQKQWKDVVERAC
